Patent US20150044137A1 (UNITED STATES OF AMERICA AS REPRESENTED BY THE SECRETARY …, published 2015)
Numbering of substitutions follows the chain as printed.

How the values were obtained:
RSC3 probe [1] = test: ELISA-type plate assay (OD450), mAb titrated on RSC3 [panel VRC14b]
RSC3 probe [2] = test: ELISA-type plate assay (OD450), mAb titrated on RSC3 [panel VRC14]
RSC3 probe [3] = test: ELISA-type plate assay (OD450), mAb titrated on RSC3 [panel VRC14c]
[4] = target: T1, Yu2 gp120 HIV-1 Env protein (HIV-1 (strain Yu2), UniProt P35961 32-498)
[5] = target: T1, Yu2 gp120 HIV-1 Env protein; test: ELISA-type plate assay (OD450), mAb titrated on Yu2 gp120 WT

B1: VRC14b (antibody, V domains shown)
VH: QVQLVQSGTALKSPGSSAKLSCTVLGDEFGTYFISWIRQAPGQGLEWVGGIVPHSQLQSSAQKFHGRITISAGAGVTPPVVSLQLTNLTFEDTGTYFCARERGRHRDPKTGDALRGRYFDFWGRGTGVRVST
VL: QSALTQPAFVSGSPGQSITLSCTLGTEDVSWYQQRPNSAPRLIIFDVKKRPSDVSDRFSGHNSDTAAFLTISELRPEDEAEYFCTSWPYRFGRGTKVDVA
RSC3 probe [1]
  EC50 (read off the curve): ~7 ng/mL

B2: VRC14 (antibody, V domains shown)
VH: B1 VH with T69I, V128L
VL: QSALTQPAFVSGSPGQSITLSCSLGTADVSWYQQRPNSAPRLIIFDVKKRPSDVSDRFSGHNSDTAAFVTISELRPEDEAEYFCTSWPYRFGPGTKVDVAR
notes: also called mAb VRC14
RSC3 probe [2]
  EC50 (read off the curve): ~6 ng/mL

B3: VRC14c (antibody, V domains shown)
VH: B1 VH with T69I, D112K, L114P, R129T, T132A
VL: B1 VL with E81D, G92D
RSC3 probe [3]
  EC50 (read off the curve): ~20 ng/mL

B4: VRC13 (antibody, V domains shown)
VH: QVQLVQPGTAMKSLGSSLTITCRVSGDDLGSFHFGTYFMIWVRQAPGQGLEYMGGILPSTKTPTYAHKFRGRVSISAPGVPPVLSLALTNLTYDDTATYFCARERGRHFEPKNRDNLEGKFFDLWGRGTFVRVSP
VL: QSALTQPASVSGSPGQSINISCAGRSDRVSWYQQRPNGVPKLLMFDVYRRPSGVSDRFSGSHSGDTAFLTISGLQTEDEADYYCTSHPYAFGAGTKVNVLR
[4]
  IC50 (read off the curve): ~400 ng/mL

B5: VRC16b (antibody, V domains shown)
VH: EVQLSESGGGVVKPGGSLRLSCEASGFTFSNYAMSWVRQAPGKGLEWVSVTGGHGTYGYYGEFVKGRFTISRDHSMDTVYLQMNRLRVEDTAVYYCVRTPYYHESSGYYYRAGNYFDFWGKGTLVIVSA
VL: DIQMTQSPSSLSASVGDRVTITCRASQDIANYLNWYQKKSGTPPKLLIFAATNLHRGVSPRFSGSGSGTHFSLTITNVQYEDFANYFCQHSFGTIGTFGQGTWVDIR
[5]
  EC50 (read off the curve): ~20 ng/mL

B6: VRC16c (antibody, V domains shown)
VH: EVQLSESGGGFVKPGGSLRLSCEASGFTFNNYAMSWVRQAPGKGLEWVSVTSAHGGSAYYGEFVKGRFTMSRDHFIDTVYLEMNRLTVEDTAVYYCVRVTFYHEGSGYYYRAGNYFDSWGKGTRVVVSA
VL: B5 VL with V15I, S63T, S67H, Y80H, A84G, N85H, H90Q, G93A, I95V, T97S
[5]
  EC50 (read off the curve): ~5 ng/mL

B7: VRC16d (antibody, V domains shown)
VH: B6 VH with R85G
VL: B5 VL with V15I, S63T, S67H, Y80H, A84G, H90Q, G93A, I95V, T97S
[5]
  EC50 (read off the curve): ~5 ng/mL
